From patent US20020165132A1

Key:
[1] = molecular target: δ receptor (δ-Binding assay, replacement of 3H-naltrindole); assay: δ-Binding, replacement of 3H-naltrindole (radioligand displacement)
[2] = molecular target: µ-receptor (guinea pig ileum preparation) (guinea pig); assay: cell-based or functional assay
[3] = molecular target: δ-receptor (mouse vas deferens preparation) (mouse) (UniProt P32300); assay: cell-based or functional assay
δ-receptor (mouse vas deferens preparation) (mouse), sequence (P32300 whole entry, stated change not applied): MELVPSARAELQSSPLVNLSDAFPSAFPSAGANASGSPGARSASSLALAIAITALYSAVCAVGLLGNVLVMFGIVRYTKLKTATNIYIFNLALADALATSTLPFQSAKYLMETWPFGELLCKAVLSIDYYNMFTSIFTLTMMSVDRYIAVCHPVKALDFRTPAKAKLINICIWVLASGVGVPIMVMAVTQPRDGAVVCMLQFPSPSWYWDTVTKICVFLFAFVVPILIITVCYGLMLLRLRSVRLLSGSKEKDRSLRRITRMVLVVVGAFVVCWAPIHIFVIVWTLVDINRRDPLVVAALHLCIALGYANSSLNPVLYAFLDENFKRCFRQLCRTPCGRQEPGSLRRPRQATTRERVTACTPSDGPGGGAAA

IC50 [1] [nM] | GPI IC50 [2] [nM] | MVD IC50 [3] [nM] | Substance
1 | – | – | Tyr-c[D-AlaL-Gly-Phe-L-AlaL]-OH (peptide)
– | 1.51 | – | Tyr-c[D-Cys-Gly-Phe-L-Cys]-NH2 (peptide)
7 | – | – | Tyr-c[D-AlaL-Gly-Phe-L-AlaL]-NH2 (peptide)
– | 7300 | 4.1 | Tyr-c[D-Pen-Gly-Phe-D-Pen]-OH (peptide)
– | 0.78 | – | Tyr-c[D-Cys-Gly-Phe-D-Cys]-NH2 (peptide)
– | 3.06 | – | Tyr-c[D-Cys-Gly-Phe-L-Cys]-OH (peptide)
